Laboratory results from patent US8461305B2, “L-fucose α1→6 specific lectin” (J-Oil Mills, Inc., priority 2008, dated 2013).

Tests used:
[1] = frontal affinity chromatography (FAC), association constant to PA sugar chains having other L-fucose; type: binding; settings: 25 degrees C.
Summary of the method: (§1)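 Lectin coupled via primary amines to NHS-activated sepharose in a miniature column, run in TBS (pH 7.4) at 0.125 ml/min and 25 degrees C. PA sugar chains (3.75 nM or 7.5 nM) applied in excess, with elution monitored by fluorescence (ex 310/em 380 nm). Ka calculated from front-end delay (V−Vo) versus PA rhamnose and effective ligand amount (Bt).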

[2] = frontal affinity chromatography (FAC), association constant to PA sugar chains without L-fucose; type: binding; settings: 25 degrees C.
Summary of the method: as §1

B1: Aleuria aurantia lectin (protein)
chain: PTEFLYTSKIAAISWAATGGRQQRVYFQDLNGKIREAQRGGDNPWTGGSSQNVIGEAKLFSPLAAVTWKSAQGIQIRVYCVNKDNILSEFVYDGSKWITGQLGSVGVKVGSNSKLAALQWGGSESAPPNIRVYYQKSNGSGSSIHEYVWSGKWTAGASFGSTVPGTGIGATAIGPGRLRIYYQATDNKIREHCWDSNSWYVGGFSASASAGVSIAAISWGSTPNIRVYWQKGREELYEAAYGGSWNTPGQIKDASRPTPSLPDTFIAANSSGNIDISVFFQASGVSLQQWQWISGKGWSIGAVVPTGTPAGW
- association constant Ka ([1]; Sugar chain No. 419): <1000 M⁻¹
- association constant Ka ([1]; Sugar chain No. 420): <1000 M⁻¹
- association constant Ka ([1]; Sugar chain No. 718): 65000 M⁻¹
- association constant Ka ([1]; Sugar chain No. 719): <1000 M⁻¹
- association constant Ka ([1]; Sugar chain No. 720): <1000 M⁻¹
- association constant Ka ([1]; Sugar chain No. 721): <1000 M⁻¹
- association constant Ka ([1]; Sugar chain No. 722): <1000 M⁻¹
- association constant Ka ([1]; Sugar chain No. 723): 35000 M⁻¹
- association constant Ka ([1]; Sugar chain No. 726): <1000 M⁻¹
- association constant Ka ([1]; Sugar chain No. 727): 130000 M⁻¹
- association constant Ka ([1]; Sugar chain No. 728 (as listed in Table 5/12)): <1000 M⁻¹
- association constant Ka ([1]; Sugar chain No. 729): <1000 M⁻¹
- association constant Ka ([1]; Sugar chain No. 730): <1000 M⁻¹
- association constant Ka ([1]; Sugar chain No. 731): <1000 M⁻¹
- association constant Ka ([1]; Sugar chain No. 739): <1000 M⁻¹
- association constant Ka ([1]; Sugar chain No. 909): 310000 M⁻¹
- association constant Ka ([1]; Sugar chain No. 910): 90000 M⁻¹
- association constant Ka ([1]; Sugar chain No. 931): <1000 M⁻¹
- association constant Ka ([1]; Sugar chain No. 932): <1000 M⁻¹
- association constant Ka ([1]; Sugar chain No. 933): 210000 M⁻¹
- association constant Ka ([2]; Sugar chain No. 001): <1000 M⁻¹
- association constant Ka ([2]; Sugar chain No. 002): <1000 M⁻¹
- association constant Ka ([2]; Sugar chain No. 003): <1000 M⁻¹
- association constant Ka ([2]; Sugar chain No. 004): <1000 M⁻¹
- association constant Ka ([2]; Sugar chain No. 005): <1000 M⁻¹
- association constant Ka ([2]; Sugar chain No. 006): <1000 M⁻¹
- association constant Ka ([2]; Sugar chain No. 007): <1000 M⁻¹
- association constant Ka ([2]; Sugar chain No. 008): <1000 M⁻¹
- association constant Ka ([2]; Sugar chain No. 009): <1000 M⁻¹
- association constant Ka ([2]; Sugar chain No. 010): <1000 M⁻¹
- association constant Ka ([2]; Sugar chain No. 011): <1000 M⁻¹
- association constant Ka ([2]; Sugar chain No. 012): <1000 M⁻¹
- association constant Ka ([2]; Sugar chain No. 013): <1000 M⁻¹
- association constant Ka ([2]; Sugar chain No. 014): <1000 M⁻¹
- association constant Ka ([2]; Sugar chain No. 101): <1000 M⁻¹
- association constant Ka ([2]; Sugar chain No. 103): <1000 M⁻¹
- association constant Ka ([2]; Sugar chain No. 104): <1000 M⁻¹
- association constant Ka ([2]; Sugar chain No. 105): <1000 M⁻¹
- association constant Ka ([2]; Sugar chain No. 107): <1000 M⁻¹
- association constant Ka ([2]; Sugar chain No. 108): <1000 M⁻¹
- association constant Ka ([2]; Sugar chain No. 301): <1000 M⁻¹
- association constant Ka ([2]; Sugar chain No. 304): <1000 M⁻¹
- association constant Ka ([2]; Sugar chain No. 305): <1000 M⁻¹
- association constant Ka ([2]; Sugar chain No. 307): <1000 M⁻¹
- association constant Ka ([2]; Sugar chain No. 308): <1000 M⁻¹
- association constant Ka ([2]; Sugar chain No. 313): <1000 M⁻¹
- association constant Ka ([2]; Sugar chain No. 314): <1000 M⁻¹
- association constant Ka ([2]; Sugar chain No. 323): <1000 M⁻¹
- association constant Ka ([2]; Sugar chain No. 501): <1000 M⁻¹
- association constant Ka ([2]; Sugar chain No. 502): <1000 M⁻¹
- association constant Ka ([2]; Sugar chain No. 503): <1000 M⁻¹
- association constant Ka ([2]; Sugar chain No. 504): <1000 M⁻¹
- association constant Ka ([2]; Sugar chain No. 701): <1000 M⁻¹
- association constant Ka ([2]; Sugar chain No. 702): <1000 M⁻¹
- association constant Ka ([2]; Sugar chain No. 703): <1000 M⁻¹
- association constant Ka ([2]; Sugar chain No. 704): <1000 M⁻¹
- association constant Ka ([2]; Sugar chain No. 705): <1000 M⁻¹
- association constant Ka ([2]; Sugar chain No. 706): <1000 M⁻¹
- association constant Ka ([2]; Sugar chain No. 707): <1000 M⁻¹
- association constant Ka ([2]; Sugar chain No. 708): <1000 M⁻¹
- association constant Ka ([2]; Sugar chain No. 709): <1000 M⁻¹
- association constant Ka ([2]; Sugar chain No. 710): <1000 M⁻¹
- association constant Ka ([2]; Sugar chain No. 711): <1000 M⁻¹
- association constant Ka ([2]; Sugar chain No. 712): <1000 M⁻¹
- association constant Ka ([2]; Sugar chain No. 713): <1000 M⁻¹
- association constant Ka ([2]; Sugar chain No. 715): <1000 M⁻¹
- association constant Ka ([2]; Sugar chain No. 716): <1000 M⁻¹
- association constant Ka ([2]; Sugar chain No. 717): <1000 M⁻¹
- association constant Ka ([2]; Sugar chain No. 724): <1000 M⁻¹
- association constant Ka ([2]; Sugar chain No. 725): <1000 M⁻¹
- association constant Ka ([2]; Sugar chain No. 728 (as listed in Table 7)): <1000 M⁻¹
- association constant Ka ([2]; Sugar chain No. 732): <1000 M⁻¹
- association constant Ka ([2]; Sugar chain No. 733): <1000 M⁻¹
- association constant Ka ([2]; Sugar chain No. 734): <1000 M⁻¹
- association constant Ka ([2]; Sugar chain No. 735): <1000 M⁻¹
- association constant Ka ([2]; Sugar chain No. 736): <1000 M⁻¹
- association constant Ka ([2]; Sugar chain No. 737): <1000 M⁻¹
- association constant Ka ([2]; Sugar chain No. 738): <1000 M⁻¹
- association constant Ka ([2]; Sugar chain No. 901): <1000 M⁻¹
- association constant Ka ([2]; Sugar chain No. 902): <1000 M⁻¹
- association constant Ka ([2]; Sugar chain No. 903): <1000 M⁻¹
- association constant Ka ([2]; Sugar chain No. 905): <1000 M⁻¹
- association constant Ka ([2]; Sugar chain No. 906): <1000 M⁻¹
- association constant Ka ([2]; Sugar chain No. 907): <1000 M⁻¹
